Laboratory results: US20230111102A1 (published 2023)

Target: HEWL (lysozyme, derived from egg albumen, FUJIFILM Wako Pure Chemical Corporation) (UniProt P00698 19-147)
Experiment: SPR (Biacore)

HEWL (lysozyme, derived from egg albumen, FUJIFILM Wako Pure Chemical Corporation), sequence (P00698 19-147): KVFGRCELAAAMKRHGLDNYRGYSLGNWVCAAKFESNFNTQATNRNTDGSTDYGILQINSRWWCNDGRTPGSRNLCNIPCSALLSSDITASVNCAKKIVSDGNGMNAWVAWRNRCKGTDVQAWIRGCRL

Kd: 18 nM
B1: 1ZVH (VHH, SEQ ID NO: 38) produced by Bacillus subtilis Dpr9ΔsigF (VHH)
VHH: QVQLVESGGGLVQPGGSLRLSCAASGFTFSNDAMTWVRQAPGKALEWVSSITLLGGGIPYYSDTVKGRFTISRDNTKNMLYLQMNSLKPEDTAVYYCAKGFKSDYPRGQGTQVTVSS
